In article PMC6509880:

Target: apo-CrHydA1 ([4Fe4S]-CrHydA1, Chlamydomonas reinhardtii [FeFe] hydrogenase HydA1 lacking the [2Fe] subsite) (Chlamydomonas reinhardtii)

H2 evolution (methyl viologen assay, GC) of 0.04 uM apo-CrHydA1 after 60 min at 37 °C with 0.04-1.2 uM [2Fe]^adt-CaHydF; excess of HydF needed for complete activation: 10 fold excess
Substance: [2Fe]^adt-CaHydF (semi-synthetic HydF from Clostridium acetobutylicum loaded with [Fe2(adt)(CO)4(CN)2]^2-) (natural protein)
